Reference: patent publication US20040077046

Molecular target: 3H-acetylated histone H4 peptide ([3H]-Ac(H41-24))

Protein | in vitro histone deacetylase assay (release of 3H-acetate from the peptide by immunoprecipitated enzyme)
C-terminally flag epitope-tagged HDAC3 (protein) MAKTVAYFYDPDVGNFHYGAGHPMKPHRLALTHSLVLHYGLYKKMIVFKPYQASQHDMCRFHSEDYIDFLQRVSPTNMQGFTKSLNAFNVGDDCPVFPGLFEFCSRYTGASLQGATQLNNKICDIAINWAGGLHHAKKFEASGFCYVNDIVIGILELLKYHPRVLYIDIDIHHGDGVQEAFYLTDRVMTVSFHKYGNYFFPGTGDMYEVGAESGRYYCLNVPLRDGIDDQSYKHLFQPVINQVVDFYQPTCIVLQCGADSLGCDRLGCFNLSIRGHGECVEYVKSFNIPLLVLGGGGYTVRNVARCWTYETSLLVEEAISEELPYSEYFEYFAPDFTLHPDVSTRIENQNSRQYLDQIRQTIFENLKMLNHAPSVQIHDVPADLLTYDRTDEADAEERGPEENYSRPEAPNEFYDGDHDNDKESDVEI | HDAC9 could deacetylate the histone peptide substrate at a level that was equivalent to UDAC3 and HDAC4
C-terminally flag epitope-tagged HDAC4 (protein) MSSQSHPDGLSGRDQPVELLNPARVNHMPSTVDVATALPLQVAPSAVPMDLRLDHQFSLPVAEPALREQQLQQELLALKQKQQIQRQILIAEFQRQHEQLSRQHEAQLHEHIKQQQEMLAMKHQQELLEHQRKLERHRQEQELEKQHREQKLQQLKNKEKGKESAVASTEVKMKLQEFVLNKKKALAHRNLNHCISSDPRYWYGKTQHSSLDQSSPPQSGVSTSYNHPVLGMYDAKDDFPLRKTASEPNLKLRSRLKQKVAERRSSPLLRRKDGPVVTALKKRPLDVTDSACSSAPGSGPSSPNNSSGSVSAENGIAPAVPSIPAETSLAHRLVAREGSAAPLPLYTSPSLPNITLGLPATGPSAGTAGQQDAERLTLPALQQRLSLFPGTHLTPYLSTSPLERDGGAAHSPLLQHMVLLEQPPAQAPLVTGLGALPLHAQSLVGADRVSPSIHKLRQHRPLGRTQSAPLPQNAQALQHLVIQQQHQQFLEKHKQQFQQQQLQMNKIIPKPSEPARQPESHPEETEEELREHQALLDEPYLDRLPGQKEAHAQAGVQVKQEPIESDEEEAEPPREVEPGQRQPSEQELLFRQQALLLEQQRIHQLRNYQASMEAAGIPVSFGGHRPLSRAQSSPASATFPVSVQEPPTKPRFTTGLVYDTLMLKHQCTCGSSSSHPEHAGRIQSIWSRLQETGLRGKCECIRGRKATLEELQTVHSEAHTLLYGTNPLNRQKLDSKKLLGSLASVFVRLPCGGVGVDSDTIWNEVHSAGAARLAVGCVVELVFKVATGELKNGFAVVRPPGHHAEESTPMGFCYFNSVAVAAKLLQQRLSVSKILIVDWDVHHGNGTQQAFYSDPSVLYMSLHRYDDGNFFPGSGAPDEVGTGPGVGFNVNMAFTGGLDPPMGDAEYLAAFRTVVMPIASEFAPDVVLVSSGFDAVEGHPTPLGGYNLSARCFGYLTKQLMGLAGGRIVLALEGGHDLTAICDASEACVSALLGNELDPLPEKVLQQRPNANAVRSMEKVMEIHSKYWRCLQRTTSTAGRSLIEAQTCENEEAETVTAMASLSVGVKPAEKRPDEEPMEEEPPL | HDAC9 could deacetylate the histone peptide substrate at a level that was equivalent to UDAC3 and HDAC4
